Results as given in patent US20170037110A1 (IMMATICS BIOTECHNOLOGIES, published 2017).

Biological target: T1, HLA-A*02:01 (human)
T1 construct: monomers captured on streptavidin plates; also called MHC class I
Assay: UV peptide exchange ELISA
In short: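 Read-out is an ELISA on the UV-exchange reaction: monomers, diluted 100-fold, are captured on streptavidin and the β2m light chain is detected with 2 μg/ml HRP antibody and TMB at 450 nm.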

Binder	peptide exchange yield [%]
ALLEDSCHYL	50 to 75
SLVESHLSDQLTL	50 to 75
ALQPEPIKV	20 to 50
KLAKQPETV	50 to 75
KINDTIYEV	50 to 75
FLAEDPKVTL	50 to 75
QLCDLNAEL	50 to 75
LLIGHLERV	50 to 75
ALNDCIYSV	50 to 75
SLMEDQVLQL	50 to 75
KLLEATSAV	20 to 50
LLMPIPEGLTL	50 to 75
LLLNEEALAQI	50 to 75
KLIDDQDISISL	50 to 75
KLLGKVETA	50 to 75
LLDPNVKSIFV	50 to 75
ILAQEQLVVGV	50 to 75
FLDPYCSASV	20 to 50
SLSEIVPCL	50 to 75
GLLGEKTQDLIGV	50 to 75
SLIEKVTQL	50 to 75
YLASDEITTV	50 to 75
LLQELVLFL	50 to 75
KLYSVVSQL	20 to 50
FIFSEKPVFV	50 to 75

Binder	peptide exchange yield [%]
KLLEVSDDPQV	50 to 75
FLLEDDIHVS	50 to 75
SLAPGDVVRQV	20 to 50
LAVHPSGVAL	10 to 20
YLYNNMIAKI	50 to 75
LLINSVFHV	50 to 75
SLIDKLYNI	20 to 50
SLLKEPQKVQL	20 to 50
YLRSVGDGETV	50 to 75
YVLEDLEVTV	20 to 50
SLLPGNLVEKV	50 to 75
FLLQHVQEL	50 to 75
FLVEKQPPQV	50 to 75
SLWPSPEQL	20 to 50
AMLEKNYKL	≥ 75
KLWTGGLDNTV	50 to 75
KIFDIDEAEEGV	20 to 50
KLPPPPPQA	50 to 75
GLIEDYEALL	50 to 75
TLWYRSPEV	20 to 50
GLSDGNPSL	20 to 50
KLNAEVACV	50 to 75
ALLPASGQIAL	50 to 75
GLLEKLTAI	50 to 75
FLAKDFNFL	50 to 75

Binder	peptide exchange yield [%]
ALMERTGYSMV	50 to 75
SLFGNSGILENV	50 to 75
RLLAQVPGL	50 to 75
VMFRTPLASV	20 to 50
ILVEADSLWVV	50 to 75
VLIANLEKL	≥ 75
AMATESILHFA	50 to 75
GLLHLTLLL	50 to 75
SLMPHIPGL	50 to 75
TLLVKVFSV	50 to 75
AVMESIQGV	50 to 75
FLFDTKPLIV	50 to 75
SLFDGFADGLGV	50 to 75
KMWEELPEVV	50 to 75
YLDPALELGPRNV	50 to 75
SVAPNLPAV	50 to 75
YLLHEKLNL	50 to 75
SLNHFTHSV	50 to 75
AVGPASILKEV	20 to 50
NVPDSFNEV	50 to 75
MLLTKLPTI	50 to 75
ALITEVVRL	20 to 50
GLNDRSDAV	20 to 50
